Data published in PMC11297931, “Structural basis of Cdk7 activation by dual T-loop phosphorylation” (Nature Communications, 2024).

B1: MBP-Mat1_(230-309) (domain or fragment, human, UniProt P51948 230-309, looked up)
chain: GQHISLAPIHKLEEALYEYQPLQIETYGPHVPELEMLGRLGYLNHVRAASPQDLAGGYTSSLACHRALQDAFSGLFWQPS
notes: source: Sf9 (baculovirus), expressed separately from Cdk7/Cyclin H; purified as an MBP fusion protein; also in lysate (pooled with GST-Cdk7/Cyclin H lysate); not shown: MBP, N-terminal, kept
B2: VHH_(RD7-04), form for co-crystallization (VHH)
VHH: QVQLVESGGGLVQPGGSLRLSCVASGFTFKNFYMGWVRQAPDKGLEWVATINSGGEIQSYADSVKGRFTISRDNAKNTLYLQMNNLRPEDTAVYYCSKQSSTPAKGQGTQVTVSS
notes: nanobody chain of the deposited structure PDB 8PYR; Expression construct pelB-His6-TEV-NB in a modified pET28a vector; also called nanobody VHH RD7-04; chaperoning nanobody; source: E. coli BL21 (DE3), periplasmic extract, purified (HisTrap, TEV, SEC, reverse Ni-NTA); not shown: His6, N-terminal, cleaved

Experiments:
[1] = target: T1, wild-type Cdk7/Cyclin H binary complex, doubly phosphorylated (human, UniProt P50613 2-346; P51946 1-323, phosphoserine at 164; phosphothreonine at 170 | M1 acetylated); test: SPR; MBP-Mat1(230-309) (15 nM) captured by anti-MBP antibody amine-coupled to a CM5 chip; Cdk7/Cyclin H complexes as analyte, multi-cycle kinetics, up to 150 nM, association 180 s, dissociation 900 s; 25 °C; 10 mM HEPES pH 7.4, 150 mM NaCl, 0.05% Tween20; steady-state affinity fit; Biacore 8K; settings: both partners purified
T1 construct: Cyclin-dependent kinase 7 (Cdk7), human, residues 2-346; Cyclin H, human, residues 1-323; the SPR text names no tag; also called Cdk7/CycH; GST-Cdk7/Cyclin H; source: Sf9 (baculovirus), co-expressed from a single vector; purified (GSTrap, SEC); also in lysate (pooled with MBP-Mat1 lysate)
T1 sequence (P50613 2-346, chain 1 of 2): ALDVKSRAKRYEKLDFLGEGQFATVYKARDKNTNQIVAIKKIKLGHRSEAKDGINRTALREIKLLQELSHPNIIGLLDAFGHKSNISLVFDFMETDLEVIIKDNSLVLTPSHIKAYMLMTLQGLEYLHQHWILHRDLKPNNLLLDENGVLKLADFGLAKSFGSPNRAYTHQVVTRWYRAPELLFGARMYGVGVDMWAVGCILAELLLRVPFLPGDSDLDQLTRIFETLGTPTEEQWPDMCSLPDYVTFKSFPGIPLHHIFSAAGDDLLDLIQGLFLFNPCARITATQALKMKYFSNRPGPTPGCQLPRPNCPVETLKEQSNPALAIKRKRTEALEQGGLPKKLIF
T1 sequence (P51946 whole entry, chain 2 of 2, the tested form may be a part): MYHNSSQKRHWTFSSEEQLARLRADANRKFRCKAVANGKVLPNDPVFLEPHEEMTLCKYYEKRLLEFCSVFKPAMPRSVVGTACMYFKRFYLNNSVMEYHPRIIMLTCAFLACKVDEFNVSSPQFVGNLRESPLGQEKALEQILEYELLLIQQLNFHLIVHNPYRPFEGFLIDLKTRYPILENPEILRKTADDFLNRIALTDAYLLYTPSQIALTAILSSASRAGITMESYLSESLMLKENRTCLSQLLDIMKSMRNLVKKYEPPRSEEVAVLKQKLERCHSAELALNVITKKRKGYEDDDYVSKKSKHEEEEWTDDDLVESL

[2] = target: T1, wild-type Cdk7/Cyclin H binary complex, …; test: cell-based or functional assay
[3] = target: Cdk7(R167A)/Cyclin H binary complex (human, UniProt P50613 2-346; P51946 1-323, R167A); test: cell-based or functional assay
Cdk7(R167A)/Cyclin H binary complex, sequence (P50613 2-346 R167A, chain 1 of 2): as the sequence (P50613 2-346, chain 1 of 2) above, with R166A counted along it
Cdk7(R167A)/Cyclin H binary complex, sequence (P51946 whole entry, chain 2 of 2): as the sequence (P51946 whole entry, chain 2 of 2, the tested form may be a part) above

[4] = target: T2, Mat1 (230-309) (human, UniProt P51948); test: crystal structure; Cdk7/Cyclin H/Mat1(230-309) mixed 1:1 with VHH RD7-04, with 1 mM ADP/Mg2+; hanging drop, 0.1 M Hepes pH 7.0, PEG 6K/4K, 15 °C; 2.15 Å; settings: both partners purified
T2 construct: also called C-terminal fragment of Mat1; source: lysate pooled with GST-Cdk7/Cyclin H lysate; purified (MBPTrap, TEV, SEC, reverse MBP and GST); not shown: MBP, N-terminal, cleaved

Binder	Kd [1] [nM]	stimulation of kinase activity by Mat1 addition, normalized to the complex without Mat1 (Fig. 3f) [2] [fold]	stimulation of kinase activity by Mat1 addition, normalized to the complex without Mat1 (Fig. 3f) [3] [fold]	binding result [4]
B1	9.8	~10	~5	
B2				binds
